Assay type in all cases: biochemical, Spodoptera littoralis
Substrate in series [1]: C/C=C/C/C=C\CCCCCCCCOC(C)=O
The series can be described thus: GC of the released alcohol, nonlinear fit. The note with it: 5 min incubation, one-site fit, buffer and temperature not restated for kinetics (1 h assay: 20 mM Tris pH 7.4, 28°C).

Substrate in series [2]: CC/C=C/C=C\CCCCCCCCOC(C)=O
Description: GC of the released alcohol, nonlinear fit. The conditions noted are these: 5 min incubation, one-site fit, buffer and temperature not restated for kinetics (1 h assay: 20 mM Tris pH 7.4, 28°C).

Substrate in series [3]: CC/C=C\CCOC(C)=O
Description: GC of the released alcohol, as in an earlier paper. The conditions noted are these: incubation and analyses as in ref 12; one-site fit.

B1: SlCXE7 (Spodoptera littoralis) (protein)
chain: DDEWREVKTAQGPVRGRKHPTEDIYTFYNIPYATAPVGVDRFKAPLPPPVWLQPYDAVEKPVVCPQPVFPFPELQLNKLVKQENCLIANVFVPNTNKKNLSVVVYVHGGAFIMGWGDMFRATQLMNKKDIIVVTFNYRLGVHGFLCLGTEDAPGNAGMKDQVALLRWVQKNIGSFNGNPDDVTIIGFSAGSASVDLLMLSKSAEGLFHRVVPESGGNLAAFAIQRDPVEIAKTYARQLNFTNVDDIYALGEFYKTAPLELLTSDPFFDRTDSTFLFSPCVERNMGQETFLTESPLTILKNGNYKKLPVLYGFAEMEGLLRVDFFPFWKQKMSDKFSDFLPADLTFKYEEEREEVANKVKRFYFGDEPVSEDNILQYVNFFSDVLFMHPMLWATKLHVEAGNNQIYLYELSFVAEEVPEVPHTNIKGVTQCGQSLAVLDGKNLTHKSHSEESLATPEYQKMKKTMREIWYNFIKKGKPVPEGSTRPAWPFAGADRSPHMSLGQKIEPRGVLLEKRTVLWDDINQRYFREPVPPPTPPPKSHAEK
notes: complete ORF amplified from male antennal cDNA, C-terminal V5/6His tag (tag kept), secreted from baculovirus-infected Sf21 cells, Ni-NTA purified from supernatant
As usually defined, the Km is the substrate concentration at which the rate is half of its maximum. A word on the kcat: it is the maximal rate divided by the concentration of active sites. For the protein B1, the Michaelis-Menten constant (Km) in series [1] is 42.6 ± 13.3 µM; in series [2], 56.6 ± 18.5 µM; in series [3], 1600 ± 700 µM. The turnover number (kcat) is approximately 0.4 s⁻¹ in series [1], approximately 0.4 s⁻¹ in series [2] and 36 s⁻¹ in series [3].

(Values after article PMC3246455, “Degradation of Pheromone and Plant Volatile Components by a Same Odorant-Degrading Enzyme in the Cotton Leafworm, Spodoptera littoralis” (PLoS ONE, 2011).)
